Results from publication PMC9598537.

Tests used:
[1] = biological target: AR9 chaperonin (gp228, product of gene 228 of bacteriophage AR9 Bacillus subtilis) (bacteriophage AR9 (Bacillus subtilis phage)); assay: SAXS; gp228 at 0.5 to 7.0 mg/mL, 20 °C, P12 beamline PETRA III; oligomeric state from the excluded volume Vp
[2] = biological target: AR9 chaperonin (gp228, product of gene 228 of bacteriophage AR9 Bacillus subtilis) (bacteriophage AR9 (Bacillus subtilis phage)); assay: cryo-EM structure; purified apo gp228 in 50 mM Tris-HCl pH 7.5, 10 mM MgCl2, 100 mM KCl; single particle analysis, maps with no symmetry and with C7 symmetry; homology model flexibly fitted into the map

Substance: AR9 chaperonin (gp228, product of gene 228 of bacteriophage AR9 Bacillus subtilis) (natural protein)
- stoichiometry N [1]: 7
- stoichiometry N [2]: 7
